Values of other authors, collected in article PMC9598996.

How the values were obtained:
Cys67 = Cys67 (UniProt position 567, ILIEICGHKAI); details: native (folded) enzyme, cysteines reduced
Cys95 = Cys95 (UniProt position 595, LTQIGCTLNFP); details: native (folded) enzyme, cysteines reduced

HIV-1 protease (retropepsin) (Human immunodeficiency virus type 1)
pKa (Cys67): about 6
pKa (Cys95): about 6
